Legend:
Assay in all cases: purified protein
Settings in all cases: pH and temperature of the kinetic assay not given
purified protein [1] = substrate: CCOC(=O)[C@@H](C)Oc1ccc(Oc2cnc3cc(Cl)ccc3n2)cc1
purified protein [2] = substrate: COC(=O)C(C)Oc1ccc(Oc2ccc(Cl)cc2Cl)cc1
purified protein [3] = substrate: COC(=O)[C@@H](C)Oc1ccc(Oc2ncc(C(F)(F)F)cc2Cl)cc1
purified protein [4] = substrate: C#CCOC(=O)[C@@H](C)Oc1ccc(Oc2ncc(Cl)cc2F)cc1
purified protein [5] = substrate: CCOC(=O)[C@@H](C)Oc1ccc(Oc2nc3ccc(Cl)cc3o2)cc1
purified protein [6] = substrate: CCCCOC(=O)[C@@H](C)Oc1ccc(Oc2ccc(C(F)(F)F)cn2)cc1

B1: FeH (FE-hydrolyzing carboxylesterase) (Rhodococcus sp. JPL-2) (protein)
chain: MSDIHGVCDARFSALREALERNLDSGEDVGASIAVTLDGEPVVDIWGGSMDAGGSRPWERDTITNVWSCSKTVTALAALMLVDRGQLDLDAPVARYWSDFAANGKEGILVRHLLSHTSGVSGWDQPFTMDDLADTTKATELLAAQAPWWEPGTASGYHALNYGHLIGEVVRRVDGRTLTGFIEEEISRPLGADFRLGVARSDYSRVSEVIPPPPLPIDFATLDPASVMVKTFTGPPADATAAWGDGWREAEIGAANGHSNARALARIQSVIACGGRVGGVRLLSADTIDAIFDEQSYGVDLVLGVPVRFGVGFGLPTPESVPFVPEGRICFWGGWGGSQIIVDTERRMTVAYVMNKMGPGLLGSDRSAEYVSAAFAAVP
In the case of B1, the Km (purified protein [1]) is reported as 230 µM, the kcat (purified protein [1]) is reported as 0.75 s⁻¹ and the kcat/Km (purified protein [1]) is reported as 3250 M⁻¹ s⁻¹. It also gave a Km (purified protein [2]) of 410 µM, a kcat (purified protein [2]) of 0.33 s⁻¹ and a kcat/Km (purified protein [2]) of 810 M⁻¹ s⁻¹. For the same protein, the Km (purified protein [3]) was 390 µM, the kcat (purified protein [3]) was 0.37 s⁻¹ and the kcat/Km (purified protein [3]) was 940 M⁻¹ s⁻¹. For the same protein, the Km (purified protein [4]) was 290 µM, the kcat (purified protein [4]) was 0.61 s⁻¹ and the kcat/Km (purified protein [4]) was 2090 M⁻¹ s⁻¹. The Km (purified protein [5]) was 200 µM, the kcat (purified protein [5]) was 0.7 s⁻¹ and the kcat/Km (purified protein [5]) was 3520 M⁻¹ s⁻¹. It also gave a Km (purified protein [6]) of 360 µM, a kcat (purified protein [6]) of 0.59 s⁻¹ and a kcat/Km (purified protein [6]) of 1650 M⁻¹ s⁻¹.
